This note sets out measurements from the supplement of paper PMC11246515.

± gives the standard deviation of the averaged measurements.

This series in a line: total protein half-life in vivo (active degradation + dilution); higher = more stable protein.
Where [1] appears, read: E. coli NCM3722 delta-clpP delta-lon delta-hslV, growth: N-lim chemostat, doubling time 6 h.
[2] abbreviates: wild type E. coli NCM3722, growth: C-lim chemostat, doubling time 3 h.
[3] abbreviates: wild type E. coli NCM3722, growth: C-lim chemostat, doubling time 6 h.
The mark [4] stands for this setting: wild type E. coli NCM3722, growth: C-lim chemostat, doubling time 12 h.
The mark [5] stands for this setting: wild type E. coli NCM3722, growth: P-lim chemostat, doubling time 12 h.
The mark [6] stands for this setting: E. coli NCM3722 delta-clpP, growth: N-lim chemostat, doubling time 6 h.
[7] abbreviates: E. coli NCM3722 delta-hslV, growth: N-lim chemostat, doubling time 6 h.
[8] abbreviates: E. coli NCM3722 delta-lon, growth: N-lim chemostat, doubling time 6 h.
Setting [9] is: E. coli NCM3722 delta-smpB, growth: N-lim chemostat, doubling time 6 h.
The mark [10] stands for this setting: wild type E. coli NCM3722, growth: N-lim chemostat, doubling time 6 h.
Where [11] appears, read: wild type E. coli NCM3722, growth: N-lim chemostat, doubling time 12 h.
The mark [12] stands for this setting: wild type E. coli NCM3722, growth: P-lim chemostat, doubling time 6 h.

“MLRECDYSQALLEQVNQAISDKTPLVIQGSNSKAFLGRPVTGQTLDVRCHRGIVNYDPTELVITARVGTPLVTIEAALESAGQMLPCEPPHYGEEATWGGMVACGLAGPRRPWSGSVRDFVLGTRIITGAGKHLRFGGEVMKNVAGYDLSRLMVGSYGCLGVLTEISMKVLPRPRASLSLRREISLQEAMSEIAEWQLQPLPISGLCYFDNALWIRLEGGEGSVKAARELLGGEEVAGQFWQQLREQQLPFFSLPGTLWRISLPSDAPMMDLPGEQLIDWGGALRWLKSTAEDNQIHRIARNAGGHATRFSAGDGGFAPLSAPLFRYHQQLKQQLDPCGVFNPGRMYAEL”: the “total protein half-life in vivo” value came out at 4.1 ± 1.8 h under setting [1]; 1.22 ± 0.36 h under setting [2]; 2.52 ± 0.13 h under setting [3]; 3.59 ± 0.039 h under setting [4]; 3.88 ± 1.7 h under setting [5].

On to “MQDRNFDDIAEKFSRNIYGTTKGQLRQAILWQDLDRVLAEMGPQKLRVLDAGGGEGQTAIKMAERGHQVILCDLSAQMIDRAKQAAEAKGVSDNMQFIHCAAQDVASHLETPVDLILFHAVLEWVADPRSVLQTLWSVLRPGGVLSLMFYNAHGLLMHNMVAGNFDYVQAGMPKKKKRTLSPDYPRDPAQVYLWLEEAGWQIMGKTGVRVFHDYLREKHQQRDCYEALLELETRYCRQEPYITLGRYIHVTARKPQSKDKV”, for which the “total protein half-life in vivo” value reads like this: under setting [1], 4.99 ± 0.24 h; under setting [6], 4.498 ± 0.018 h; under setting [7], 3.95 ± 0.13 h; under setting [8], 4.57 ± 0.49 h; under setting [9], 4.304 ± 0.012 h; under setting [2], 2.96 ± 0.23 h. The “total protein half-life in vivo” value by setting is: under setting [3], 5.46 ± 0.57 h; under setting [4], 10.2 ± 0.95 h; under setting [10], 4.21 ± 0.36 h; under setting [11], 7.11 ± 0.55 h; under setting [12], 5.32 ± 0.21 h; under setting [5], 11 ± 0.42 h.

Regarding “MEITEPRRLYQQLAADLKERIEQGVYLVGDKLPAERFIADEKNVSRTVVREAIIMLEVEGYVEVRKGSGIHVVSNQPRHQQAADNNMEFANYGPFELLQARQLIESNIAEFAATQVTKQDIMKLMAIQEQARGEQCFRDSEWDLQFHIQVALATQNSALAAIVEKMWTQRSHNPYWKKLHEHIDSRTVDNWCDDHDQILKALIRKDPHAAKLAMWQHLENTKIMLFNETSDDFEFNADRYLFAENPVVHLDTATSGSK [P0ACL2]”, the “total protein half-life in vivo” value turned out to be 5.59 ± 0.086 h under setting [1]; 4.22 ± 0.52 h under setting [6]; 1.94 ± 0.086 h under setting [7]; 2.4 ± 0.26 h under setting [8]; 2.12 ± 0.16 h under setting [9]; 1.97 ± 0.099 h under setting [2]. Also, the “total protein half-life in vivo” value is 3.7 ± 0.26 h under setting [3]; 5.16 ± 0.083 h under setting [4]; 1.97 ± 0.043 h under setting [10]; 2.59 ± 0.37 h under setting [11]; 2.99 ± 0.29 h under setting [12]; 4.91 ± 0.27 h under setting [5].

Regarding “MSKIRVLSVDDSALMRQIMTEIINSHSDMEMVATAPDPLVARDLIKKFNPDVLTLDVEMPRMDGLDFLEKLMRLRPMPVVMVSSLTGKGSEVTLRALELGAIDFVTKPQLGIREGMLAYNEMIAEKVRTAAKASLAAHKPLSAPTTLKAGPLLSSEKLIAIGASTGGTEAIRHVLQPLPLSSPALLITQHMPPGFTRSFADRLNKLCQIGVKEAEDGERVLPGHAYIAPGDRHMELSRSGANYQIKIHDGPAVNRHRPSVDVLFHSVAKQAGRNAVGVILTGMGNDGAAGMLAMRQAGAWTLAQNEASCVVFGMPREAINMGGVCEVVDLSQVSQQMLAKISAGQAIRI”, the “total protein half-life in vivo” value by setting is: under setting [1], 4.85 h; under setting [2], 2.09 ± 0.19 h; under setting [3], 3.21 ± 0.2 h; under setting [4], 5.6 ± 0.28 h; under setting [5], 9.95 h.

On to “MSVPLILTILAGAATFIGAFLGVLGQKPSNRLLAFSLGFAAGIMLLISLMEMLPAALAAEGMSPVLGYGMFIFGLLGYFGLDRMLPHAHPQDLMQKSVQPLPKSIKRTAILLTLGISLHNFPEGIATFVTASSNLELGFGIALAVALHNIPEGLAVAGPVYAATGSKRTAILWAGISGLAEILGGVLAWLILGSMISPVVMAAIMAAVAGIMVALSVDELMPLAKEIDPNNNPSYGVLCGMSVMGFSLVLLQTAGIG [P0A8H3]”, for which the “total protein half-life in vivo” value was determined as 1.91 h under setting [1]; 1.38 h under setting [6]; 1.59 ± 0.2 h under setting [7]; 2.14 ± 0.3 h under setting [8]; 1.65 ± 0.083 h under setting [9]; 0.41 h under setting [2]. In addition, the “total protein half-life in vivo” value is, setting by setting: under setting [3], 0.83 h; under setting [10], 1.7 h; under setting [11], 2.45 h.

With “MISDIRKDAEVRMDKCVEAFKTQISKIRTGRASPSLLDGIVVEYYGTPTPLRQLASVTVEDSRTLKINVFDRSMSPAVEKAIMASDLGLNPNSAGSDIRVPLPPLTEERRKDLTKIVRGEAEQARVAVRNVRRDANDKVKALLKDKEISEDDDRRSQDDVQKLTDAAIKKIEAALADKEAELMQF [P0A805]”, the “total protein half-life in vivo” value is 4.75 ± 0.095 h under setting [1]; 4.0455 ± 0.00085 h under setting [6]; 4.18 ± 0.071 h under setting [7]; 5.16 ± 0.078 h under setting [8]; 3.87 ± 0.05 h under setting [9]; 2.851 ± 0.0093 h under setting [2]. For the same sequence, the “total protein half-life in vivo” value came out at 4.84 ± 0.37 h under setting [3]; 8.3 ± 0.69 h under setting [4]; 3.38 ± 0.24 h under setting [10]; 5.74 ± 0.96 h under setting [11]; 5.04 ± 0.18 h under setting [12]; 9.21 ± 0.22 h under setting [5].

Turning to “MWLLDQWAERHIAEAQAKGEFDNLAGSGEPLILDDDSHVPPELRAGYRLLKNAGCLPPELEQRREAIQLLDILKGIRHDDPQYQEVSRRLSLLELKLRQAGLSTDFLRGDYADKLLDKINDN”, the “total protein half-life in vivo” value reads like this: under setting [7], 6.32 h; under setting [2], 3.06 h; under setting [10], 5.56 h; under setting [11], 12.3 h; under setting [12], 6.15 h.

With “MSAVLTAEQALKLVGEMFVYHMPFNRALGMELERYEKEFAQLAFKNQPMMVGNWAQSILHGGVIASALDVAAGLVCVGSTLTRHETISEDELRQRLSRMGTIDLRVDYLRPGRGERFTATSSLLRAGNKVAVARVELHNEEQLYIASATATYMVG [P0ADP2]”, the “total protein half-life in vivo” value was found to be 5.02 ± 0.33 h under setting [1]; 2.3 ± 0.16 h under setting [6]; 2.36 ± 0.08 h under setting [7]; 3.45 ± 0.78 h under setting [8]; 2.22 ± 0.052 h under setting [9]; 2.82 ± 0.14 h under setting [2]. The “total protein half-life in vivo” value by setting is: under setting [3], 5.73 ± 0.62 h; under setting [4], 7.1 ± 2.8 h; under setting [10], 2.54 ± 0.22 h; under setting [11], 4.13 ± 0.42 h; under setting [12], 5 ± 0.1 h; under setting [5], 12.5 ± 1 h.

As to “MRLFNWRRQAVLNAMPLVKPDQVRTPWHEFWRRFRRQHMAMTAALFVILLIVVAIFARWIAPYDAENYFDYDNLNNGPSLQHWFGVDSLGRDIFSRVLVGAQISLAAGVFAVFIGAAIGTLLGLLAGYYEGWWDRLIMRICDVLFAFPGILLAIAVVAVLGSGIANVIIAVAIFSIPAFARLVRGNTLVLKQQTFIESARSIGASDMTVLLRHILPGTVSSIVVFFTMRIGTSIISAASLSFLGLGAQPPTPEWGAMLNEARADMVIAPHVAVFPALAIFLTVLAFNLLGDGLRDALDPKIKG”, the “total protein half-life in vivo” value runs as follows: under setting [6], 6.63 h; under setting [7], 6.48 ± 0.35 h; under setting [9], 6.59 ± 0.99 h; under setting [2], 3.08 ± 0.21 h; under setting [3], 6.44 ± 0.14 h; under setting [4], 13.6 h. Also, the “total protein half-life in vivo” value reads like this: under setting [10], 6.817 ± 0.047 h; under setting [11], 12.4 ± 1.2 h; under setting [12], 6.55 ± 0.52 h.
